In patent US7019123:

Assays:
human plasmin (human) = human plasmin (human) (UniProt P00747); experiment: enzyme inhibition; human plasmin 50 pM
bovine trypsin (bovine) = bovine trypsin (bovine) (UniProt P00760); experiment: enzyme inhibition; trypsin 48.5 pM
[1] = biological target: bovine pancreatic kallikrein (bovine); experiment: enzyme inhibition; bovine pancreatic kallikrein 92.0 pM
[2] = biological target: human plasma kallikrein (human) (UniProt P03952); experiment: enzyme inhibition; apparent Ki
[3] = biological target: bovine pancreatic kallikrein (bovine); experiment: enzyme inhibition; comparison of Ki values with aprotinin
[4] = biological target: bovine pancreatic kallikrein (bovine); experiment: enzyme inhibition, tight-binding fit; bovine pancreatic kallikrein 92 pM, PFR-AMC

Sequence of human plasmin (human) (P00747 97-810 limits assumed): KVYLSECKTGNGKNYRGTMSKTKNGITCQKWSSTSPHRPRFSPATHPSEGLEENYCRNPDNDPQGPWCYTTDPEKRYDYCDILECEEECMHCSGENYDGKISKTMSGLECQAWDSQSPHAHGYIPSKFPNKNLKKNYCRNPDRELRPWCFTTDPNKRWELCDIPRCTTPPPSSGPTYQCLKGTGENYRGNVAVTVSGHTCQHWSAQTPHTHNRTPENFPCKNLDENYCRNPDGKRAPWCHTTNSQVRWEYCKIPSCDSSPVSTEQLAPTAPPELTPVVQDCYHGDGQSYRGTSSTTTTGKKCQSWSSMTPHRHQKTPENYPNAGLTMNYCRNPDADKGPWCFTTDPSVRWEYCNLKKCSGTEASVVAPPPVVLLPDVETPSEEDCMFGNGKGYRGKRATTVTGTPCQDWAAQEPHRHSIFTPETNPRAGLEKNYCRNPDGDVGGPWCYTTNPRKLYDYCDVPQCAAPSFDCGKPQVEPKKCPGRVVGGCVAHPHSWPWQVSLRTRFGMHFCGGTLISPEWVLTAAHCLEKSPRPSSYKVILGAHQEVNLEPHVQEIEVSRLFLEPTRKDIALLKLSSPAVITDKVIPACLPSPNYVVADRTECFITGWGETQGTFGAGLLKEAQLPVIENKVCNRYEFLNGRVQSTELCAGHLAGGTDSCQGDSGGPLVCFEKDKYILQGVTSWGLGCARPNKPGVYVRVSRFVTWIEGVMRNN
Sequence of human plasma kallikrein (human) (P03952 20-638 limits assumed): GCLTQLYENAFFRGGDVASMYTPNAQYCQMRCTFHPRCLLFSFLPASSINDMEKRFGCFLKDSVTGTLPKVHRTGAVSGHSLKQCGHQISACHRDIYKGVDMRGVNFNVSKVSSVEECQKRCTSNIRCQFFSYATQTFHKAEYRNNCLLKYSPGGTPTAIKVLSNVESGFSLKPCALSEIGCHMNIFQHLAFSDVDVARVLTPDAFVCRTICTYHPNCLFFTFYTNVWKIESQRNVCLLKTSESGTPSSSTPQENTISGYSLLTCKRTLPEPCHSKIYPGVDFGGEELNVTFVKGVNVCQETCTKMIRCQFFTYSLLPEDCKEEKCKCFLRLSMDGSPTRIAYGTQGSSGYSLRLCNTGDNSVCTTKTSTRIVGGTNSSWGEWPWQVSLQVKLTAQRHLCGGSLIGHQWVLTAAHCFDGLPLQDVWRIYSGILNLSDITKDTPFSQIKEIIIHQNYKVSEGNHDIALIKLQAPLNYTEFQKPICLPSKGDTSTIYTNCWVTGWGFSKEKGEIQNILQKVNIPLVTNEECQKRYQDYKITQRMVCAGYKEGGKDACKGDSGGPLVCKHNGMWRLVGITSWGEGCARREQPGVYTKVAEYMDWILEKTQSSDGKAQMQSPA
Sequence of bovine trypsin (bovine) (P00760 24-246): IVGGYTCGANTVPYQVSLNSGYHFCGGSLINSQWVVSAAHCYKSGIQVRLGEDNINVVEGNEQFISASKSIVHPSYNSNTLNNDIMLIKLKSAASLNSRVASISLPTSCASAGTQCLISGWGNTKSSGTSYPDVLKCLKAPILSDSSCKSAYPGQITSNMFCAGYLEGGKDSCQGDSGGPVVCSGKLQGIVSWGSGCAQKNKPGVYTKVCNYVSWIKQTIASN

Substance “native human placental bikunin isolated from placenta (from UniProt O43291 28-203)” has a Ki (human plasmin (human)) of 1.9 nM and a Ki (bovine trypsin (bovine)) of 0.13 nM.
“synthetic placental bikunin (7-64), first preparation (from UniProt O43291 34-91)” showed a Ki [1] of 0.4 nM.
“recombinant placental bikunin (102-159) expressed in yeast SC101 (from UniProt O43291 129-186)” gave a Ki [2] of 0.35 nM.
“synthetic placental bikunin (102-159) (from UniProt O43291 129-186)” gave a fold higher Ki than aprotinin [3] of 20 fold, a Ki [4] of 0.4 nM and a Ki [1] of 0.4 nM.
